The values below come from patent publication US20190153119A1.

Experiment [1] deals with TF on A431 cells (human) (UniProt P13726). The experiment in a line: flow. The conditions noted are these: Fc fusion.
Experiment [2] has the same target. The experiment in a line: flow. The conditions noted are these: Fc fusion. The source holds these as a separate data set.

Sequence of UniProt P13726 (P13726 33-295): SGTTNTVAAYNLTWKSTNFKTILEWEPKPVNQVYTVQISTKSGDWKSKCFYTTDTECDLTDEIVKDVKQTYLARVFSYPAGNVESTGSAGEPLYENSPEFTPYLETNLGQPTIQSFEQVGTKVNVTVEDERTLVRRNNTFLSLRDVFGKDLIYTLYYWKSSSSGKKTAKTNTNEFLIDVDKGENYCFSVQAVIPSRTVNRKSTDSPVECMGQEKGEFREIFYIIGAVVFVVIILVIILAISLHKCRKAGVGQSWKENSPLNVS

On to ICON1_BHK, for which the EC50 in experiment [1] was 2.5 nM; in experiment [2], 3.59 nM.

ICON1_CHO yielded an EC50 in experiment [1] of 12.9 nM.

In turn, 2-armed ICON1 [Lot 10.1.1] yielded an EC50 in experiment [1] of 15 nM.
